# T1: Trigger Factor (TF), full length, residues 1-432 (E. coli), P0A850
# T1 chain: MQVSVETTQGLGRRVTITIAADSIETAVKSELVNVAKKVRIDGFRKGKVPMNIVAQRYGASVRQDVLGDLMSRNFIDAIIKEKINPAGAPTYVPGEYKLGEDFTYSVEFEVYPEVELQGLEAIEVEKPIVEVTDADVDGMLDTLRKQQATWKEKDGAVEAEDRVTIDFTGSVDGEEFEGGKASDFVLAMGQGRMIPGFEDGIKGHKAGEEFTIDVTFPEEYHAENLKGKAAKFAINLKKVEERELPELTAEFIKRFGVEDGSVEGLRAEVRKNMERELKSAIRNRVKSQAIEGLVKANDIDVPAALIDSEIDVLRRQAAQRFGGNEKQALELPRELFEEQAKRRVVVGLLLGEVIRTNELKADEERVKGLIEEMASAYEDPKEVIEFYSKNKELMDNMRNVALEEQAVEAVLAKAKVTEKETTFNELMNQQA
# T2: Trigger Factor (TF), full length, residues 1–432 (E. coli), P0A850
# T2 chain: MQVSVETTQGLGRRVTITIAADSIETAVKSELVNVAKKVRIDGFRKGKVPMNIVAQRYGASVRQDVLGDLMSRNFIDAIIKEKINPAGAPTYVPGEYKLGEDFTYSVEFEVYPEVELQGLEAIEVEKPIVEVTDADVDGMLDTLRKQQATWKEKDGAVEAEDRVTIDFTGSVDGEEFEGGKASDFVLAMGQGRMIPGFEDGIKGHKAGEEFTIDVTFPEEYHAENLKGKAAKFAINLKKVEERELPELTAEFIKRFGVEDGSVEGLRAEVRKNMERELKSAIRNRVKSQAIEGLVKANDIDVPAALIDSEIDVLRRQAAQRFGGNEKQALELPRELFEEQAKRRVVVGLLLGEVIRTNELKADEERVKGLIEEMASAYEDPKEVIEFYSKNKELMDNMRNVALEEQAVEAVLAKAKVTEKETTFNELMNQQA
# What was measured:
# Conditions in all cases: remark: other sources report otherwise
# [1] = target: T1, Trigger Factor (TF), full length, …; assay: SEC-MALS; concentration series of full-length TF and full-length mutants alone, 26 °C, sample buffer (20 mM K-phosphate pH 6.5, 100 mM KCl, 0.5 mM EDTA); fit to a fast monomer-dimer equilibrium; dimer to monomers
# [2] = target: T2, Trigger Factor (TF), full length, …; assay: real-time NMR spin-label exchange (intermolecular PRE); 15 °C; 100 µM [U-2H,15N] TF mixed with 100 μM OXYL-1-NHS-labeled TF in sample buffer; decay of the 15N-filtered signal fitted to the lifetime of the dimer
# [3] = target: T2, Trigger Factor (TF), full length, …; assay: SEC-MALS; as a2 but 250 mM KCl; dimer to monomers
# [4] = target: T2, Trigger Factor (TF), full length, …; assay: real-time NMR spin-label exchange (intermolecular PRE); 35 °C; 100 µM [U-2H,15N] TF mixed with 100 μM OXYL-1-NHS-labeled TF in sample buffer; decay of the 15N-filtered signal fitted to the lifetime of the dimer
# [5] = target: T2, Trigger Factor (TF), full length, …; assay: AUC; sedimentation equilibrium, 6 °C, 100 mM KCl (sample buffer: 20 mM K-phosphate pH 6.5, 100 mM KCl, 0.5 mM EDTA); 12 μM TF, 48 and 135 μM RBD–SBD; global fit to a monomer–dimer model; dimer to monomers
# [6] = target: T2, Trigger Factor (TF), full length, …; assay: SEC-MALS; as a2 but 500 mM KCl; dimer to monomers
# [7] = target: T2, Trigger Factor (TF), full length, …; assay: SEC-MALS; sample buffer (20 mM K-phosphate pH 6.5, 100 mM KCl, 0.5 mM EDTA); 6 °C for the individual domains; concentration series fitted to a fast monomer–dimer equilibrium; dimer to monomers
Kd [1] [nM],lifetime of the dimer [2] [min],Kd [3] [µM],lifetime of the dimer [4] [min],Kd [5] [µM],Kd [6] [µM],Kd [7] [nM],stoichiometry N [7],Binder
1100,–,–,–,–,–,–,–,"Trigger Factor (TF), full length, residues 1-432, P0A850 1-432 (natural protein) MQVSVETTQGLGRRVTITIAADSIETAVKSELVNVAKKVRIDGFRKGKVPMNIVAQRYGASVRQDVLGDLMSRNFIDAIIKEKINPAGAPTYVPGEYKLGEDFTYSVEFEVYPEVELQGLEAIEVEKPIVEVTDADVDGMLDTLRKQQATWKEKDGAVEAEDRVTIDFTGSVDGEEFEGGKASDFVLAMGQGRMIPGFEDGIKGHKAGEEFTIDVTFPEEYHAENLKGKAAKFAINLKKVEERELPELTAEFIKRFGVEDGSVEGLRAEVRKNMERELKSAIRNRVKSQAIEGLVKANDIDVPAALIDSEIDVLRRQAAQRFGGNEKQALELPRELFEEQAKRRVVVGLLLGEVIRTNELKADEERVKGLIEEMASAYEDPKEVIEFYSKNKELMDNMRNVALEEQAVEAVLAKAKVTEKETTFNELMNQQA"
–,15.8,9,2.6,3.3,30,1700,2,"Trigger Factor (TF), full length, residues 1–432, P0A850 1-432 (natural protein) MQVSVETTQGLGRRVTITIAADSIETAVKSELVNVAKKVRIDGFRKGKVPMNIVAQRYGASVRQDVLGDLMSRNFIDAIIKEKINPAGAPTYVPGEYKLGEDFTYSVEFEVYPEVELQGLEAIEVEKPIVEVTDADVDGMLDTLRKQQATWKEKDGAVEAEDRVTIDFTGSVDGEEFEGGKASDFVLAMGQGRMIPGFEDGIKGHKAGEEFTIDVTFPEEYHAENLKGKAAKFAINLKKVEERELPELTAEFIKRFGVEDGSVEGLRAEVRKNMERELKSAIRNRVKSQAIEGLVKANDIDVPAALIDSEIDVLRRQAAQRFGGNEKQALELPRELFEEQAKRRVVVGLLLGEVIRTNELKADEERVKGLIEEMASAYEDPKEVIEFYSKNKELMDNMRNVALEEQAVEAVLAKAKVTEKETTFNELMNQQA"

# — article PMC5722895
